Source: paper PMC2133165 (The Journal of Cell Biology, 1999)

Assays:
SF3a60 = target: T1, SF3a60 (human (endogenous in HeLa), UniProt Q12874 1-501); assay: co-IP
T1 sequence: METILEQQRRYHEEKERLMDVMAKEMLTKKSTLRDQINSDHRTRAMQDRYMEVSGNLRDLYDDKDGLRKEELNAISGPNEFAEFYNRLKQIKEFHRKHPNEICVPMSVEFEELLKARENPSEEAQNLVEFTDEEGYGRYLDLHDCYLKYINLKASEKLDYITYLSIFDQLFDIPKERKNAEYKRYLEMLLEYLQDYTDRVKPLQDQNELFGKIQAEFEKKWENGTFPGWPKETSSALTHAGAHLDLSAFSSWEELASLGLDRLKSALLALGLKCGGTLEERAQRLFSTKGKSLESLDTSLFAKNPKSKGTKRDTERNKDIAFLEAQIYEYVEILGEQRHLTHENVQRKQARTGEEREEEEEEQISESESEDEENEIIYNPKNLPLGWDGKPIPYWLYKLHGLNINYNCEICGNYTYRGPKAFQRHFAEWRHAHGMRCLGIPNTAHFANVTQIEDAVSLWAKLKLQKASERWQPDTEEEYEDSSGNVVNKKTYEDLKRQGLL

SF3a120 = target: T2, SF3a120 (human (endogenous in HeLa), UniProt Q15459 1-793); assay: co-IP
T2 sequence: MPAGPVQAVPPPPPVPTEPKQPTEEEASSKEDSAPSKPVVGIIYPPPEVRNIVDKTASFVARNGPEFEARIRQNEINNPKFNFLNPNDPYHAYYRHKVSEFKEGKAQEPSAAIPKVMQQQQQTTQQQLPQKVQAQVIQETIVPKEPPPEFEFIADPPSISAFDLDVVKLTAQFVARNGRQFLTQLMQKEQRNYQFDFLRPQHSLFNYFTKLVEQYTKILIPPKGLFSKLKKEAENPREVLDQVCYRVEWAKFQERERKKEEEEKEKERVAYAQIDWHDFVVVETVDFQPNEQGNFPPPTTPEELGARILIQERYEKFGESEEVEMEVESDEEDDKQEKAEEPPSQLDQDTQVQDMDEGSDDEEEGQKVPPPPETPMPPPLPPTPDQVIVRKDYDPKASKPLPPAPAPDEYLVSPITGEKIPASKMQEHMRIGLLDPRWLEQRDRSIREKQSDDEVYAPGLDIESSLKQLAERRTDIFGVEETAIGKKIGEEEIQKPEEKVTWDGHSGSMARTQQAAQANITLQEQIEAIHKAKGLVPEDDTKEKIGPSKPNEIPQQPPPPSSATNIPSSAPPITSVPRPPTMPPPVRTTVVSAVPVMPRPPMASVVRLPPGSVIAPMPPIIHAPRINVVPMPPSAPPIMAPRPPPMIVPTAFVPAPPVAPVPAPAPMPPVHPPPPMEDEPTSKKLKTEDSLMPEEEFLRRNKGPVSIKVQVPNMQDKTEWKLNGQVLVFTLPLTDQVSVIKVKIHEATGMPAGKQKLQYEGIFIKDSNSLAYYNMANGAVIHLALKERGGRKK

B1: SF3a66 (natural protein)
chain: MDFQHRPGGKTGSGGVASSSESNRDRRERLRQLALETIDINKDPYFMKNHLGSYECKLCLTLHNNEGSYLAHTQGKKHQTNLARRAAKEAKEAPAQPAPEKVKVEVKKFVKIGRPGYKVTKQRDSEMGQQSLLFQIDYPEIAEGIMPRHRFMSAYEQRIEPPDRRWQYLLMAAEPYETIAFKVPSREIDKAEGKFWTHWNRETKQFFLQFHFKMEKPPAPPSLPAGPPGVKRPPPPLMNGLPPRPPLPESLPPPPPGGLPLPPMPPTGPAPSGPPGPPQLPPPAPGVHPPAPVVHPPASGVHPPAPGVHPPAPGVHPPAPGVHPPTSGVHPPAPGVHPPAPGVHPPAPGVHPPAPGVHPPAPGVHPPPSAGVHPQAPGVHPAAPAVHPQAPGVHPPAPGMHPQAPGVHPQPPGVHPSAPGVHPQPPGVHPSNPGVHPPTPMPPMLRPPLPSEGPGNIPPPPPTN
binding result (SF3a60): binds | binding result (SF3a120): binds
